Experimental data from the supplement of paper PMC9112550, “Optimization of the antimicrobial peptide Bac7 by deep mutational scanning” (BMC Biology, 2022).

test system: Escherichia coli TOP10; test: shrunken log2 fold change of peptide-encoding DNA abundance (4.5 h post-induction vs induction); higher = less antimicrobial activity (less host growth inhibition); details: time post-induction: 4.5 h; library: site-saturation at positions 5, 18, 19, 20
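Further: peptides expressed intracellularly from a pBAD plasmid library in pooled LB shake-flask culture, induced with 0.3% L-arabinose, DNA abundance read by NGS, three biological replicates, DESeq2 with apeglm shrinkage.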

Sequence	shrunken log2 fold change
RRIRMRPPRLPRPRPRPANAPRP	0.442
RRIRKRPPRLPRPRPRPFFGPRP	0.304
RRIRCRPPRLPRPRPRPECQPRP	0.511
RRIRWRPPRLPRPRPRPTKTPRP	0.0481
RRIRFRPPRLPRPRPRPCIAPRP	-0.166
RRIRERPPRLPRPRPRPAMSPRP	-0.0829
RRIRKRPPRLPRPRPRPAIKPRP	0.191
RRIRTRPPRLPRPRPRPKMMPRP	0.332
RRIRSRPPRLPRPRPRPVSTPRP	-0.187
RRIRARPPRLPRPRPRPDNCPRP	-0.153
RRIRMRPPRLPRPRPRPDMTPRP	-0.05
RRIRKRPPRLPRPRPRPTHEPRP	0.267
RRIRDRPPRLPRPRPRPHEQPRP	-0.0062
RRIRQRPPRLPRPRPRPEPFPRP	-0.00936
RRIRCRPPRLPRPRPRPATMPRP	-0.0924
RRIRVRPPRLPRPRPRPKFEPRP	0.12
RRIRSRPPRLPRPRPRPLVFPRP	-0.0421
RRIRARPPRLPRPRPRPMFFPRP	0.0123
RRIRGRPPRLPRPRPRPRAMPRP	0.787
RRIRFRPPRLPRPRPRPCWWPRP	0.696
RRIRIRPPRLPRPRPRPWTRPRP	-0.187
RRIRERPPRLPRPRPRPELSPRP	0.314
RRIRMRPPRLPRPRPRPTGEPRP	0.0299
RRIRARPPRLPRPRPRPATFPRP	0.129
RRIRSRPPRLPRPRPRPVNAPRP	0.319

Sequence	shrunken log2 fold change
RRIRTRPPRLPRPRPRPVQYPRP	-0.246
RRIRSRPPRLPRPRPRPFNCPRP	-0.441
RRIRHRPPRLPRPRPRPYLHPRP	-0.175
RRIRTRPPRLPRPRPRPWLWPRP	0.202
RRIRSRPPRLPRPRPRPPWSPRP	0.25
RRIRERPPRLPRPRPRPALDPRP	-0.0626
RRIRYRPPRLPRPRPRPNNTPRP	-1.32
RRIRFRPPRLPRPRPRPAMIPRP	-0.397
RRIRNRPPRLPRPRPRPLISPRP	3.16
RRIRLRPPRLPRPRPRPEVWPRP	0.276
RRIRFRPPRLPRPRPRPETRPRP	0.159
RRIRIRPPRLPRPRPRPTSKPRP	-0.207
RRIRHRPPRLPRPRPRPIGSPRP	-0.0183
RRIRGRPPRLPRPRPRPQWPPRP	0.475
RRIRYRPPRLPRPRPRPFFSPRP	-0.77
RRIRKRPPRLPRPRPRPFTCPRP	0.182
RRIRYRPPRLPRPRPRPHNKPRP	-0.718
RRIRVRPPRLPRPRPRPILYPRP	0.0692
RRIRCRPPRLPRPRPRPSWHPRP	-0.488
RRIRFRPPRLPRPRPRPNILPRP	-0.178
RRIRTRPPRLPRPRPRPQPRPRP	0.439
RRIRPRPPRLPRPRPRPVQCPRP	-0.0846
RRIRGRPPRLPRPRPRPQYMPRP	-0.195
RRIRYRPPRLPRPRPRPTNPPRP	-0.165
RRIRARPPRLPRPRPRPASEPRP	0.285

Sequence	shrunken log2 fold change
RRIRKRPPRLPRPRPRPDHIPRP	-0.0249
RRIRKRPPRLPRPRPRPIARPRP	-0.0481
RRIRRRPPRLPRPRPRPPCSPRP	0.112
RRIRCRPPRLPRPRPRPIHAPRP	-0.0479
RRIRERPPRLPRPRPRPNNRPRP	-0.315
RRIRWRPPRLPRPRPRPSHDPRP	0.023
RRIRHRPPRLPRPRPRPLDGPRP	-0.34
RRIRQRPPRLPRPRPRPPINPRP	-0.00134
RRIRARPPRLPRPRPRPNSLPRP	-0.207
RRIRTRPPRLPRPRPRPDHCPRP	-0.116
RRIRGRPPRLPRPRPRPWSHPRP	-0.155
RRIRGRPPRLPRPRPRPYLRPRP	-0.0169
RRIRCRPPRLPRPRPRPDEHPRP	-0.417
RRIRCRPPRLPRPRPRPPMMPRP	-0.0549
RRIRMRPPRLPRPRPRPNDVPRP	-0.00114
RRIRDRPPRLPRPRPRPFRSPRP	-0.0401
RRIRQRPPRLPRPRPRPGMDPRP	0.342
RRIRDRPPRLPRPRPRPGFTPRP	0.125
RRIRQRPPRLPRPRPRPEQPPRP	0.393
RRIRNRPPRLPRPRPRPSIYPRP	-0.449
RRIRVRPPRLPRPRPRPRKDPRP	0.0324
RRIRKRPPRLPRPRPRPRPDPRP	0.446
RRIRSRPPRLPRPRPRPHGMPRP	-0.21
RRIRSRPPRLPRPRPRPAWKPRP	0.186
RRIRYRPPRLPRPRPRPDPTPRP	-0.435

Sequence	shrunken log2 fold change
RRIRERPPRLPRPRPRPLPPPRP	0.124
RRIRQRPPRLPRPRPRPDWAPRP	-0.012
RRIRMRPPRLPRPRPRPPFPPRP	0.671
RRIRYRPPRLPRPRPRPDMTPRP	-0.149
RRIRDRPPRLPRPRPRPVFMPRP	0.11
RRIRWRPPRLPRPRPRPIRAPRP	-0.0266
RRIRKRPPRLPRPRPRPKKKPRP	0.0709
RRIRSRPPRLPRPRPRPNWTPRP	-0.000246
RRIRKRPPRLPRPRPRPHIKPRP	-0.0411
RRIRKRPPRLPRPRPRPGQVPRP	0.00902
RRIRDRPPRLPRPRPRPPAVPRP	0.312
RRIRSRPPRLPRPRPRPWEFPRP	0.236
RRIRCRPPRLPRPRPRPTFTPRP	-0.416
RRIRERPPRLPRPRPRPEYPPRP	-0.162
RRIRNRPPRLPRPRPRPPWWPRP	0.788
RRIRWRPPRLPRPRPRPFRNPRP	-0.209
RRIRTRPPRLPRPRPRPNDYPRP	-0.523
RRIRARPPRLPRPRPRPKPYPRP	0.0727
RRIRGRPPRLPRPRPRPLWFPRP	0.183
RRIRPRPPRLPRPRPRPVYHPRP	-0.388
RRIRKRPPRLPRPRPRPDNFPRP	-0.0455
RRIRLRPPRLPRPRPRPTCKPRP	-0.0465
RRIRHRPPRLPRPRPRPRYIPRP	-0.528
RRIRRRPPRLPRPRPRPPLGPRP	0.998
RRIRCRPPRLPRPRPRPWWDPRP	0.00335

Sequence	shrunken log2 fold change
RRIRCRPPRLPRPRPRPYHDPRP	-1.05
RRIRDRPPRLPRPRPRPHKCPRP	-0.372
RRIRSRPPRLPRPRPRPGMYPRP	0.0605
RRIRCRPPRLPRPRPRPDKFPRP	-0.296
RRIRARPPRLPRPRPRPVLRPRP	0.228
RRIRWRPPRLPRPRPRPNALPRP	0.15
RRIRIRPPRLPRPRPRPFWHPRP	-0.275
RRIRWRPPRLPRPRPRPSCTPRP	-0.11
RRIRTRPPRLPRPRPRPLVDPRP	-0.143
RRIRSRPPRLPRPRPRPYRTPRP	0.00951
RRIRLRPPRLPRPRPRPSGEPRP	0.0911
RRIRRRPPRLPRPRPRPFHFPRP	-0.413
RRIRCRPPRLPRPRPRPASTPRP	-0.481
RRIRERPPRLPRPRPRPEMLPRP	0.0972
RRIRCRPPRLPRPRPRPWGAPRP	0.0457
RRIRIRPPRLPRPRPRPSPEPRP	-0.241
RRIRQRPPRLPRPRPRPDEDPRP	-0.0326
RRIRHRPPRLPRPRPRPGYSPRP	0.0976
RRIRRRPPRLPRPRPRPNTQPRP	0.0214
RRIRKRPPRLPRPRPRPQTHPRP	0.372
RRIRDRPPRLPRPRPRPCCFPRP	0.395
RRIRIRPPRLPRPRPRPQPSPRP	-0.214
RRIRWRPPRLPRPRPRPGQSPRP	0.572
RRIRLRPPRLPRPRPRPCACPRP	-0.385
RRIRPRPPRLPRPRPRPKKSPRP	0.085

Sequence	shrunken log2 fold change
RRIRARPPRLPRPRPRPCNRPRP	0.0805
RRIRHRPPRLPRPRPRPIGRPRP	-0.00982
RRIRARPPRLPRPRPRPPVLPRP	0.214
RRIRERPPRLPRPRPRPIVWPRP	0.0693
RRIRHRPPRLPRPRPRPYNPPRP	-1.07
RRIRWRPPRLPRPRPRPKQPPRP	0.334
RRIRQRPPRLPRPRPRPRVYPRP	0.0498
RRIRFRPPRLPRPRPRPEGWPRP	0.807
RRIRPRPPRLPRPRPRPLYSPRP	-0.194
RRIRVRPPRLPRPRPRPNDYPRP	-0.00419
RRIRMRPPRLPRPRPRPQMQPRP	0.108
RRIRDRPPRLPRPRPRPKWYPRP	-0.0377
RRIRTRPPRLPRPRPRPPYDPRP	-0.398
RRIRVRPPRLPRPRPRPPQEPRP	0.177
RRIRYRPPRLPRPRPRPNTKPRP	-0.0891
RRIRFRPPRLPRPRPRPQYKPRP	-0.755
RRIRTRPPRLPRPRPRPFVQPRP	-0.177
RRIRIRPPRLPRPRPRPTADPRP	-0.063
RRIRHRPPRLPRPRPRPEHPPRP	0.00839
RRIRNRPPRLPRPRPRPRPAPRP	0.313
RRIRQRPPRLPRPRPRPCFTPRP	-0.684
RRIRNRPPRLPRPRPRPAHCPRP	-0.424
RRIRERPPRLPRPRPRPTAAPRP	0.456
RRIRNRPPRLPRPRPRPIQEPRP	-0.0116
RRIRPRPPRLPRPRPRPINDPRP	-0.178
